Assay [1] has as its target T1, yeast small ubiquitin-like modifier protein (yeast, UniProt Q12306 3-98 = SUMO).
T1 construct: GST fusion in most phage ELISAs, His-tagged or tag-cleaved elsewhere; also called ySUMO; yeast SUMO
As to the kind of experiment: SPR; column 'Estimated Kd (nM)' [Continued]. A digest of the protocol: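 Purified His-tagged molecules were captured on an NTA surface of a Biacore 2000 to reach a theoretical maximum target response of 100-200 RU, and target at varying concentrations was flowed at 30 μL/min. Estimated Kd values come from surface plasmon resonance binding signals, analysed either by kinetic fitting in BIAevaluation software or by fitting equilibrium responses to a saturation binding curve with 1:1 binding.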

The target in assay [2] is T1, yeast small ubiquitin-like modifier …. Kind of assay: titration phage ELISA. On the procedure: hSUMO1-binding cradle molecules had varied ability to discriminate hSUMO1 and ySUMO as assessed by phage ELISA (FIGS. 25A and 26A).
For phage amplification, E. coli XL1-Blue cells transformed with the LacI containing plasmid pMCSG21 (Stols, et al., Protein Express. Purif. (2007) 53:396-403) (termed “XL21” hereafter) were used. Cradle molecule displaying phage were prepared by growing XL21 cells transfected with phagemid of individual clones in the presence of 0.2 mM IPTG and helper phage K07 (Koide, A., and Koide, S., supra, 2007; Sidhu, et al., supra, 2000). Cultures were then centrifuged and phage containing supernatant used for ELISA assays. All incubations were at room temperature. In all instances except for the phage titration experiment used to test hSUMO1-binding cradle molecule specificity (FIG. 26), wells of a 96-well Microlon© (Greiner) ELISA plate were treated with a 2 μg/mL solution of a GST-fusion of the appropriate target protein, or GST alone in 50 mM Tris Cl buffer containing 150 mM NaCl, pH 7.5 (TBS) and incubated for 1 hour followed by blocking with 0.5% BSA in TBS for 1 hour.
Background: In an ELISA, binding on a coated surface is turned into a signal by an enzyme label.

For assay [3] the target is unchanged. As to the kind of experiment: titration phage ELISA: His-tagged target captured via BT-Tris-NTA on NeutrAvidin-coated wells, serial 5-fold dilutions of phage supernatant. The essentials: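 Phage ELISA with phage-containing supernatant from XL21 cells grown with 0.2 mM IPTG and helper phage K07. His-tagged target (50 nM) was complexed with BT-Tris NTA on NeutrAvidin-coated, BSA-blocked wells for 30 minutes. A 30% phage supernatant and serial 5-fold dilutions in TBS/0.5% BSA were incubated for 30 minutes at room temperature. Detection used anti-M13-HRP and TMB, quenched with H₂SO₄, with absorbance at 450 nm scaled to 1 cm path-length.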

Assay [4] has the same target. As to the kind of experiment: SPR (Biacore 2000), monobody immobilised via His-tag on NTA surface, ySUMO flowed over it. As for the experimental part: (§1) Cradle molecules purified as described above were immobilized via His-tag to an NTA surface using a Biacore™ 2000 instrument so that the theoretical maximum response (Rₘₐₓ) from target binding was 100-200 RU. Target protein at varying concentrations was then flowed over the surface at a flow rate of 30 μL/min and the binding signal recorded. Fitting of kinetic traces was carried out using the BIAevaluation software. For equilibrium experiments, the equilibrium binding response was recorded for multiple target concentrations and fit to a simple 1:1 saturation binding curve.
(In SPR one partner is held on a chip, and binding of the other changes the refractive index at the surface.)

Assay [5] shares this target. Kind of assay: SPR.
Text: Such high selectivity was unexpected, because the SIM-binding site is the most highly conserved surface between ySUMO and hSUMO proteins (FIG. 16A). […] Thus, it was expected that generating FnIII domain variants that bind to hSUMOs in a mode similar to the ySUMO-binding FnIII domain variants would yield clones with higher isoform selectivity toward hSUMOs.
as §1

The target is the same in assay [6]. As to the kind of experiment: SPR (monobody on the chip via His-tag, target flowed); estimated Kd. As for the experimental part:
as §1

For assay [7] the target is unchanged. As to the kind of experiment: SPR, fit of the traces to a 1:1 binding model [panel D]. As for the experimental part:
as §1

In assay [8] the target is T2, human Abl SH2 domain (human, UniProt P00519 112-232, limits assumed).
T2 construct: domain: SH2 domain; poly-histidine tagged in selection; tag cleaved for SPR and crystals; also called Ab1SH2; SH2 domain of Abl kinase
T2 sequence (looked up): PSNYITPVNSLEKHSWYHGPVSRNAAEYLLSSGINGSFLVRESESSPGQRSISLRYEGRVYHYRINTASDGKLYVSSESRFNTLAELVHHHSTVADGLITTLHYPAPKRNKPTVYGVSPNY
As to the kind of experiment: Kd (nM) column of the drawn table; the method for this clone is not stated (SH13 came directly from the phage display library).

Assay [9] addresses T2, human Abl SH2 domain. As to the kind of experiment: method not given.

Numbering of substitutions follows the chain as printed.

This is an account of results in patent US20140057807A1 (UNIVERSITY OF CHICAGO, published 2014).

T1 sequence (Q12306 3-98 limits assumed): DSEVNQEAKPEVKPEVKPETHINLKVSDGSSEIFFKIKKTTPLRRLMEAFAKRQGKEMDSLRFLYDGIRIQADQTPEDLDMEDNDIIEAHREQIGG

B1: ySMB-53 (designed binder)
chain: VSSVPTKLEVVAATPTSLLISWDASSSSVSYYRITYGETGGNSPVQEFTVPGSSSTATISGLSPGVDYTITVYAYQSFGYNEYWSSGSPISINYRT
notes: variable loops only; library YSGW
Regarding B1, in [1], the Kd was 380 nM.

B2: hS1MB-7 (designed binder)
chain: VSSVPTKLEVVAATPTSLLISWDASSSSVSYYEITYGETGGNSPVQEFTVPGSSSTATISGLSPGVDYTITVIAFYSHDDIYISDSPSSINYRT
Regarding B2, the “fold weaker binding to ySUMO than to hSUMO1” value (“fold weaker binding” for short) in assay [2] was not below 100 fold. For the same molecule, the binding result in assay [3] was “no binding”.

B3: hS1MB-16 (designed binder)
chain: B2 chain with Y31H, E33D, I73Y, F75Y, Y76N, Y82F, S84A, D85Y
On to B3, for which the “fold weaker binding” value in [2] was not below 100 fold.

B4: ySMB-1 (designed binder)
chain: B2 chain with E33R, I73Y, F75Y, H78Y, D79Y, I81L, I83Y, D85Y
notes: it may hold only the diversified positions and not the whole FnIII domain; BC and DE loops are polyserine; also called monobody ySMB-1; FnIII domain variant ySMB-1
In the case of B4, the values for the Kd in [4], in [5] and in assay [6] were 72 nM, 82 nM and 72 nM, respectively. This molecule displayed a koff in assay [7] of 0.09 s⁻¹. This molecule also returned a kon in assay [7] of 1.1e+06 M⁻¹ s⁻¹.

B5: hS1MB-23 (designed binder)
chain: B2 chain with Y31H, I73Y, F75Y, Y82F, I83Y, S84A, D85F
For the molecule B5, the “fold weaker binding” value in assay [2] is not below 100 fold.

B6: ySMB-54 (designed binder)
chain: VSSVPTKLEVVAATPTSLLISWDAGYDESVMYYRITYGETGGNSPVQEFTVPGSSSTATISGLSPGVDYTITVYAYREYDGLYYSYSPISINYRT
notes: as for B1
Turning to B6, in [1], the Kd was 950 nM.

B7: SH13 (designed binder)
chain: VSSVPTKLEVVAATPTSLLISWDAPAVDFYVYLITYGETGGNSPVQEFTVPGSKSTATISGLSPGVDYTITVYGYSDSWNWPYSPISINYRT
notes: also called SH13 monobody
For B7, the Kd is 6.8 µM in the assay with human Abl SH2 domain [8] and approximately 4 µM with human Abl SH2 domain [9].

In general, Kd refers to the constant that tells how readily two partners part at equilibrium. The term koff denotes the first-order rate constant of dissociation. A low value points to slow dissociation. By kon is commonly meant a measure of how fast the partners come together. Lower therefore signals slower complex formation.
